Source: PMC5093072 (Structure (London, England : 1993), 2016)

What was measured:
[1] = target: the molecule itself; experiment: SEC
[2] = target: the molecule itself; experiment: SPR

Row | Protein | stoichiometry N [1] | koff [2]
1 | glutathionylated T2D/A4V-SOD1 (GS-T2D/A4V-SOD1), C111-glutathionylation enriched species (enzyme, glutathionylation at C111 (enriched species); for SPR: biotinylated on one subunit (EZ-link NHS-LC-LC-biotin)) not shown | 2 | 0.000161 s⁻¹
2 | double mutant T2D/A4V-SOD1, unmodified (enzyme, for SPR: biotinylated on one subunit (EZ-link NHS-LC-LC-biotin)) not shown | 2 | 0.000156 s⁻¹
